Measured values: paper PMC12435366, “Maleic anhydride derived diphosphines: adaptable chelators for receptor-targeted ^99mTc, ^64Cu and ^188Re radiotracers” (Chemical Science, 2025)

Test system: PSMA-expressing tumours
Experiment: Ex vivo biodistribution across both mouse models (DU145-PSMA+ and LNCaP xenografts)
Type: in vivo, mice
Conditions: both tracers, 2 h post-injection
Procedure: The biodistribution of [^99mTcO2(DP^An-PSMAt)2]^+ and [^99mTcO2(DP^MEP-PSMAt)2]^+ was studied using SPECT/CT imaging and ex vivo biodistribution methods. In these studies, [^99mTcO2(DP^An-PSMAt)2]^+ and [^99mTcO2(DP^MEP-PSMAt)2]^+ were used directly from kit-based formulations, without further purification, mimicking procedures used in clinical radiopharmacies and nuclear medicine departments. Mice were injected with [^99mTcO2(DP^An-PSMAt)2]^+ or [^99mTcO2(DP^MEP-PSMAt)2]^+ (4–5 MBq), containing 3 μg (2.6 nmol) of DP^An-PSMAt or 3.5 μg (2.6 nmol) of (DP^MEP-PSMAt) via the tail-vein, and culled 2 h post-injection, followed by dissection, organ/tissue weighing and counting. […]
For all animals, significant concentrations of ^99mTc radioactivity (2–5 %ID g^−1) were measured in PSMA-expressing tumours 2 h post-injection, and although ^99mTc tumour concentrations were consistently higher for animals administered [^99mTcO2(DP^An-PSMAt)2]^+, there were no statistically significant differences between [^99mTcO2(DP^An-PSMAt)2]^+ and [^99mTcO2(DP^MEP-PSMAt)2]^+ in either mouse model. For both tracers, there were also significant concentrations of ^99mTc radioactivity in the spleen, which is known to express low levels of PSMA and accumulate PSMA-targeted radiotracers,[9,10] and the liver. […]

## COCCOc1ccc(P(/C(C(=O)O)=C(/C(=O)NCCOCCOCCOCCOCCC(=O)NCCCC[C@H](NC(=O)N[C@@H](CCC(=O)O)C(=O)O)C(=O)O)P(c2ccc(OCCOC)cc2)c2ccc(OCCOC)cc2)c2ccc(OCCOC)cc2)cc1 [[^99mTcO2(DP^MEP-PSMAt)2]^+, metal not drawn]
  ^99mTc radioactivity concentration in kidneys: 40–90 %ID g^−1

## COc1ccc(P(/C(C(=O)O)=C(/C(=O)NCCOCCOCCOCCOCCC(=O)NCCCC[C@H](NC(=O)N[C@@H](CCC(=O)O)C(=O)O)C(=O)O)P(c2ccc(OC)cc2)c2ccc(OC)cc2)c2ccc(OC)cc2)cc1 [[^99mTcO2(DP^An-PSMAt)2]^+, metal not drawn]
  ^99mTc radioactivity concentration in kidneys: 40–90 %ID g^−1
